Values of other authors in PMC6474356.
Like-named read-outs stand apart in the source and are kept apart here.

Assays:
[1] = biological target: calmodulin (Homo sapiens) (UniProt P0DP23)
[2] = biological target: calmodulin (Homo sapiens) (UniProt P0DP23); remark: listed apart in the source

Kd [1] [nM]	Kd [2] [nM]	Substance
245	–	eEF-2K CBD peptide CBD (from UniProt O00418)
–	17	eEF-2K (from UniProt O00418)
